Laboratory results taken from patent US20240425569A1 (VISTERRA, published 2024).
Substitutions are numbered along the chain they refer to. Read-outs that look alike come from different tables or passages of the source.

Key:
[1] = target: T1, Hawaii/1944* (serotype I EDIII) (Dengue virus 1); assay: ELISA; row Hawaii/1944*, serotype I, genotype I
T1 construct: isolated EDIII protein; also called EDIII of DENV-1 Hawaii/1944

[2] = target: T2, Cambodia/2008 (serotype III EDIII); assay: ELISA; row Cambodia/2008, serotype III, genotype II
T2 construct: Genotype II; also called ED3-DV3/Cambodia08
T2 E protein domain III (EDIII): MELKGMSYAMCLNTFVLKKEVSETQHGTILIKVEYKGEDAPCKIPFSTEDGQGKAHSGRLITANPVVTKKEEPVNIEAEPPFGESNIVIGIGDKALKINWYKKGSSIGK

[3] = target: T2, Cambodia/2008 (serotype III EDIII); assay: SPR; row Cambodia/2008, serotype III, genotype II
[4] = target: T3, Singapore/2009 (serotype III EDIII)
T3 construct: also called ED3-DV3/Sing09; DENV-3 Sing
T3 E protein domain III (EDIII): T2 E protein domain III (EDIII) with L12Q, T14A, S57N

[5] = target: T4, Philippines/1956 (H87)* (serotype III EDIII) (Dengue virus 3)
T4 construct: isolated EDIII protein

[6] = target: T5, New Guinea/1944 (NGC)* (serotype II EDIII) (Dengue virus 2); assay: SPR; row New Guinea/1944 (NGC)*, serotype II, genotype Asian I
T5 construct: isolated EDIII protein; also called EDIII of DENV-2 NGC

[7] = target: T6, Malaysia/2005 (serotype I EDIII)
T6 construct: also called ED3-DV1/Malaysia05
T6 E protein domain III (EDIII): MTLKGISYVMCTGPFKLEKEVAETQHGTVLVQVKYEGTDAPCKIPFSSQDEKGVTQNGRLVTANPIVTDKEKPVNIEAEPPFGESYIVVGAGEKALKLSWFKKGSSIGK

[8] = target: T7, EDIII-DV4 (E protein domain III of dengue virus serotype DV-4) (dengue virus serotype DV-4, UniProt P09866 572-679)
T7 construct: also called DENV-4

[9] = target: T8, Singapore/2008 (serotype II EDIII); assay: ELISA; row Singapore/2008, serotype II, genotype Cosmopolitan
T8 construct: also called ED3-DV2/Sing08; DENV-2 Sing

[10] = target: T9, Mexico/1977 (BC287/97)* (serotype IV EDIII) (Dengue virus 4); assay: ELISA; row Mexico/1977 (BC287/97)*, serotype IV, genotype IIa
T9 construct: isolated EDIII protein; also called EDIII of DENV-4 Mexico/1997 (BC287/97); DENV-4 BC2

[11] = target: T10, Peru/1995 (serotype II EDIII); assay: ELISA; row Peru/1995, serotype II, genotype American
T10 construct: also called ED3-DV2/Peru95; DENV-2 Peru

[12] = target: dengue virus DENV-2 strain New Guinea/1944 (NGC) (live virus; E protein) (dengue virus serotype DENV-2, strain …, UniProt P14340 281-775); assay: cell-based or functional assay
[13] = target: dengue virus DENV-1 strain Hawaii/1944 (live virus; E protein) (dengue virus serotype DENV-1, strain …); assay: cell-based or functional assay
[14] = target: dengue virus DENV-3 strain Philippines/1956 (H87) (live virus; E protein) (dengue virus serotype DENV-3, strain …, UniProt P27915 281-773); assay: cell-based or functional assay
[15] = target: dengue virus DENV-4 strain Mexico/1997 (BC287/97) (live virus; E protein) (dengue virus serotype DENV-4, strain …); assay: cell-based or functional assay
[16] = target: T11, Singapore/2010 (serotype IV EDIII); assay: ELISA; row Singapore/2010, serotype IV, genotype IIb
T11 construct: also called ED3-DV4/Sing10; DENV-4 Sing
T11 E protein domain III (EDIII): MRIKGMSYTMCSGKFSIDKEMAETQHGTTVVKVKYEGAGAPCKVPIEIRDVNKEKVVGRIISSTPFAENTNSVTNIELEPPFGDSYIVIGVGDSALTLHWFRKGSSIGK

[17] = target: T11, Singapore/2010 (serotype IV EDIII); assay: Kd table, method not stated; Ag DENV-4 Sing
[18] = target: T12, Venezuela/2008 (serotype IV EDIII); assay: ELISA; row Venezuela/2008, serotype IV, genotype IIa
T12 E protein domain III (EDIII): T11 E protein domain III (EDIII) with I60V, S63A, F66L, D93N

[19] = target: T13, Thailand/1997 (serotype IV EDIII); assay: ELISA; row Thailand/1997, serotype IV, genotype III
T13 E protein domain III (EDIII): T11 E protein domain III (EDIII) with K19R, A38T, N69S

[20] = target: T3, Singapore/2009 (serotype III EDIII)
[21] = target: T4, Philippines/1956 (H87)* (serotype III …); assay: SPR; row Philippines/1956 (H87)*, serotype III, genotype I
[22] = target: T14, EDIII-DV3 (E protein domain III of dengue virus serotype DV-3) (dengue virus serotype DV-3, UniProt P27915 571-678)
T14 construct: also called DENV-3; EDIII of DV-3

B1: antibody D88 (antibody, V domains shown)
VH: QVQLVQSGAEVKKPGASVKVSCKAGFNIKDVYMSWVRQAPEQGLEWMGRIDPENGDTKYDPKLQGRVTMTADTSTNTAYMELRSLRSDDTAVYYCARGWEGFAYWGQGTLVTVSS
VL: DIVMTQSPASLAVSLGERATISCRASENVDKYGNSFMHWYQQKPGQPPKLLIYRASELQWGVPDRFSGSGSGTDFTLTISSLQAEDVAVYYCQRSNEVPWTFGQGTKLEIK
notes: also called mAb D88
B1 was tested, and the Kd [1] was less than 0.1 nM, the Kd [2] was 1.32 nM and the Kd [3] was 2.47 nM. It also gave a Kd [4] of 0.35 nM, a Kd [5] of 1.2 nM and a Kd [6] of 0.016 nM. The Kd [7] was 0.064 nM, the Kd [8] was 3.8 nM and the Kd [9] was less than 0.1 nM. The Kd [10] was 4.32 nM, the Kd [11] was less than 0.1 nM and the “EC50, FRNT” value [12] was less than 1 µg/mL. The “EC50, FRNT” value [13] was less than 1 µg/mL, the “EC50, FRNT” value [14] was less than 1 µg/mL and the “EC50, FRNT” value [15] was less than 1 µg/mL. The Kd [16] was 8.43 nM, the Kd [17] was 8.4 nM and the Kd [18] was 4.5 nM. The Kd [19] was 612 nM, the Kd [20] was 0.33 nM and the Kd [21] was 1 nM. The Kd [22] was 1 nM.
